In this series the test system is T1, Rsp (Staphylococcus aureus NCTC8325), ORF:0cc986df.
T1 sequence: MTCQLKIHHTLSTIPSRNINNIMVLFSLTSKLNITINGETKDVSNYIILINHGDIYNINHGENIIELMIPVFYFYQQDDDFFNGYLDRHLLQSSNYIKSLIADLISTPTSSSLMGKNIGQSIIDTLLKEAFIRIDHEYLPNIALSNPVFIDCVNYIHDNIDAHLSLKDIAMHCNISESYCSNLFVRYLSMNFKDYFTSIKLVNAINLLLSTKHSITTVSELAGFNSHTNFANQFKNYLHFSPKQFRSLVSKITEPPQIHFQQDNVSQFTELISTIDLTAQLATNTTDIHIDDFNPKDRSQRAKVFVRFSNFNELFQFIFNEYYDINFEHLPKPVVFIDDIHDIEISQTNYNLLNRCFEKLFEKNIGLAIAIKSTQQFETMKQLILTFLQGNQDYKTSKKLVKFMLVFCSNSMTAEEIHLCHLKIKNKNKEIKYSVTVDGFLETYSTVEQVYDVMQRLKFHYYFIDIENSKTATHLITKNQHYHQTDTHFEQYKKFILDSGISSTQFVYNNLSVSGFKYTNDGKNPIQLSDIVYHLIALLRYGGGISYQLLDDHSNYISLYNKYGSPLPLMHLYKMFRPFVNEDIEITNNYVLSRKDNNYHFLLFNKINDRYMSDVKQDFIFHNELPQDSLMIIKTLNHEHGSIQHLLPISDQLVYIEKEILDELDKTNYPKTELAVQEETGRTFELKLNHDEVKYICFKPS
Nature of the series: EMSA.
On to “ACTTAAATACGAATTCAGGCAACTTAATTGTGTTAAATACAGTTTTGAATGCCTAACTGTATTTCTTTTCTCTTTAAAATACAGTTAAGTACATTATAAGATGTTGTGCGGATAAACAAACTAATTGCATCAAATTTATTTTAAAATAACAACAACAAAACGTTAAGCGAATAACATTTCGGTGATTTAAAAGCTACGCACGTTTTTGTTATCTTCAAATTTAAATTTTAAGGAGTGTTTTCAATGGAAGGTT (double strand) [psmβ promoter 253 bp]”, for which the binding entry is recorded as “binds”.
Then “GCCAGCGATGATACCCATTAAGATTACCTCCTTTGCTTATGAGTTAACTTCATTGTACATAGTTATCTTGTGCGTAATTGATTTT (double strand) [psmα promoter 85 bp]”, with “no binding”; and “AACCTTCCATTGAAAACACTCCTTAAAATTTAAATTTGAAGATAACAAAAACGTGCGTAGCTTTTAAATCACCGAAATGTTATTCGCTT (double strand) [psmβ promoter 89 bp]”, with “no binding”; and “TAGTGTTGTTGTTACTGAGCTGACTATACGTGTTTTCATTTTCATCATCCTTCTATTTTTTAAAACGATTTGAGGAAACAATAATCAATATGTCAATTTAGAATATTGCA (double strand) [hla promoter 110 bp]”, with “no binding”.
“TGATTTTAAAAATTTCCATGTTTTACATTTAAATGATAGATTTCAATATATATTAGGCAGGAGAGAGAAATATGACATGCCAACTTAAA (double strand) [rsp promoter 89 bp]”: the binding entry is “no binding”.

The values are drawn from publication PMC7241556.
